The target of assay [1] is T1, BCMA on cells, species not stated (Homo sapiens (Human), UniProt Q02223 1-184).
T1 construct: also called BCMA cells; 3T3 BCMA cells
T1 sequence: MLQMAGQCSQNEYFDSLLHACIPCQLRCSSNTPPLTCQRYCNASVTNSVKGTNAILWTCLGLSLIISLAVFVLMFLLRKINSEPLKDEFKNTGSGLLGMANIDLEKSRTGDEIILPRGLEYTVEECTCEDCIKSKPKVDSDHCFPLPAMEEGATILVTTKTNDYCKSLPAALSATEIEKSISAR
In words: cell binding, MFI against antibody concentration, panel title Bind to NCI-H929 cell.

In assay [2] the target is T1, BCMA on cells, species not stated. Briefly: blocking of BAFF binding to BCMA cells.
Assay [3] has as its target T2, human BCMA (TNFRSF17) expressed on cells (human, UniProt Q02223 1-184).
T2 construct: whole, on cells; also called HEK 293T-hu BCMA cells; human BCMA cell lines
T2 sequence (looked up): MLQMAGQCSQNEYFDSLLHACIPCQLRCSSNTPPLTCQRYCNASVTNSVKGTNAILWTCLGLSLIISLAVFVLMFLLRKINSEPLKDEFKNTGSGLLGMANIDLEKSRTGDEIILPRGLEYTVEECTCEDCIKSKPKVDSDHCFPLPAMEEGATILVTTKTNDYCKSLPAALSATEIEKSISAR
In words: cell binding, MFI against antibody concentration, HEK 293T-hu BCMA cells (cell line from legend paragraph 17).

The target of assay [4] is T3, cynomolgus monkey BCMA expressed on HEK 293T cells (cynomolgus monkey, UniProt A0A2K5UD97 1-183).
T3 construct: also called HEK 293T-cyno BCMA cells; cyno BCMA
T3 sequence (A0A2K5UD97 entry or part of it limits assumed): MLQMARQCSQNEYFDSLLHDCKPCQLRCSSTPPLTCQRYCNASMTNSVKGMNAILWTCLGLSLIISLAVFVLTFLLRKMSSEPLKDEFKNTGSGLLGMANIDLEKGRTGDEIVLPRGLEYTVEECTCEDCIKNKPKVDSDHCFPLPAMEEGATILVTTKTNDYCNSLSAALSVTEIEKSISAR
Briefly: cell binding, MFI against antibody concentration, panel title Bind to HEK293T - cyno BCMA.

In assay [5] the target is T4, hBCMA-his-biotin (Acro, BCA-H82E4) (human, UniProt Q02223 1-54, biotin (as printed: hBCMA-his-biotin; site not stated)).
T4 construct: Bought reagent; not shown: His tag
T4 sequence (looked up): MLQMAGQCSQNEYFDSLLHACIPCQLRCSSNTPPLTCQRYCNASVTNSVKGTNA
In words: biosensor kinetics, SA sensor loaded with hBCMA-his-biotin, antibody in solution. The method, then:
(§1) The sensor was streptavidin (SA), loaded with hBCMA-his-biotin from Acro catalog number BCA-H82E4, and 50 nM antibody with a 1:2 dilution factor. Association times in FIG. 5A-FIG. 5C were each 600 s and dissociation times were each 900 s.

In assay [6] the target is T4, hBCMA-his-biotin (Acro, BCA-H82E4). The assay is described as above. As to the method: as §1
This is another data set of the same source.

In another assay the target is T5, EGFR (human, UniProt P00533 25-1210).
T5 construct: whole, on cells; also called control receptor
In words: cell microarray, confirmation screen, control receptor; cell left blank in Table 13.

Where two headings read alike, the source gives them in different places. A value given as a limit tells only on which side of the number the result lay.

Description for EGFR: In order to screen the on-target specificity of one of the VH-only anti-BCMA-targeted CARs, the Retrogenix Cell Microarray Technology platform was employed, which is a high-throughput platform for screening binding interactions between a test molecule and about 6100 human surfaceome proteins.
This was performed on both fixed and live cells (FIGS. 11A-11D).

B1: PR000943 (antibody, V domains shown)
VH: EVQLVETGGGLIQPGGSLRLSCAASGFPVSSNYMSWVRQAPGKGLEWVSVIFSGGRTYYADSVKGRFTISRDNSKNTLYLQMNSLRAEDTAVYYCARRNWIDGRDAFDIWGQGTMVTVSS
notes: also called HCAb antibody PR000943; not shown: constant part (CH2 and CH3 regions of the Harbour HCAb format)
Regarding B1, the “EC50 (read off the curve)” value in assay [1] was around 4 nM; in assay [3] it was around 0.01 µg/mL. In assay [2], this molecule gave a Span of 2.19.

B2: PR001035 (antibody, V domains shown)
VH: EVQLVETGGGLIQPGGSLRLSCAASGFTVSSNYMTWVRQAPGKGLEWVSVIFSGGSTYYADSVKGRFTISRDNSKNTLYLQMNSLRAEDTAVYYCARRIAVAGHDVFDIWGQGTMVTVSS
notes: also called HCAb antibody PR001035; not shown: constant part (CH2 and CH3 regions of the Harbour HCAb format)
As to B2, the concentration giving a half-maximal response (EC50 (read off the curve)) in assay [1] is around 1 nM; in assay [3] it was around 0.02 µg/mL. In assay [2], this molecule gave a Span of 1.92.

B3: PR000940 (antibody, V domains shown)
VH: EVQLLESGGGLVQPGGSLRLSCAASGFTFSSYAMIWVRQAPGKGLEWVSGISESGGSTYYADSVKGRFTISRDNSKNTLYLQMNSLRAEDTAVYFCVKDLDDILTGYYKDYWGQGTLVTVSS
notes: Heavy chain-only antibody from Harbour HCAb mice: dimer of two heavy chains, each with VH, CH2 and CH3; also called HCAb antibody PR000940; not shown: constant part (CH2 and CH3 regions of the Harbour HCAb format)
Turning to B3, in assay [4], the binding result is on record as “no binding”. The “EC50 (read off the curve)” value in assay [1] was around 2 nM.

B4: PR000274 (clone CA8-J6M0) (antibody, V domains shown)
VH: QVQLVQSGAEVKKPGSSVKVSCKASGGTFSNYWMHWVRQAPGQGLEWMGATYRGHSDTYYNQKFKGRVTITADKSTSTAYMELSSLRSEDTAVYYCARGAIYDGYDVLDNWGQGTLVTVSS
VL: DIQMTQSPSSLSASVGDRVTITCSASQDISNYLNWYQQKPGKAPKLLIYYTSNLHSGVPSRFSGSGSGTDFTLTISSLQPEDFATYYCQQYRKLPWTFGQGTKLEIKR
In assay [5], B4 returned a Kd below 0.001 nM, a koff below 1e-07 s⁻¹ and an association rate constant (kon) of 228000 M⁻¹ s⁻¹. In assay [6], the Kd was below 0.001 nM, the koff was below 1e-07 s⁻¹ and the kon stood at 195000 M⁻¹ s⁻¹. The “EC50 (read off the curve)” value in assay [1] was around 10 nM. In addition, the Span in assay [2] came to 1.86.

B5: PR001046 (antibody, V domains shown)
VH: EVQLVETGGGLIQPGGSLRLSCAASGFTVSDNYMTWVRQAPGKGLEWVSVIFSGGNTYYADSVKGRFTISRDNAKNTLYLQMNSLRAEDTALYYCARRNYDDTRGTDVFDIWGQGTMVTVSS
notes: also called HCAb antibody PR001046; PR001046 VH-only human IgG1 test antibody; not shown: constant part (CH2 and CH3)
As to B5, the binding result in the assay with EGFR is reported as “no binding (tested: 2.5 µg/mL)”. Also, the “EC50 (read off the curve)” value in assay [1] is around 2 nM; in assay [3] it was around 0.02 µg/mL. Further, the Span in assay [2] was 1.99.

What is called EC50 (read off the curve) is the concentration that produces a half-maximal response. Usually Kd stands for the free concentration of one partner at which half of the binding sites on the other are occupied at equilibrium, for simple one-to-one binding. One may read the koff as the rate constant with which the complex falls apart. The kon is the rate constant with which the complex forms.
